The results in this text go back to patent US20220089709A1 (HEFEI LIFEON PHARMACEUTICAL, published 2022).

Experiment [1] has as its target ED-B domain of human fibronectin, recombinant, with C-terminal six-histidine tag (human) (UniProt P02751). Kind of experiment: ELISA on coated ED-B, Scatchard assay (Beatty et al.).
In experiment [2] the target is T1, ED-B domain of human fibronectin, recombinant, with C-terminal six-histidine tag (human, UniProt P02751 1266-1356).
T1 construct: Expressed in E. coli from pET-22b(+) (EcoRI/NotI); residues from the vector between ED-B and the tag are not described; also called EDB antigen; antigen ED-B
Kind of experiment: direct ELISA on coated ED-B, Scatchard analysis (Beatty et al.). A general note: An ELISA detects its analyte on a solid surface through an enzyme-linked reagent.

T1 sequence (P02751 other isoform, or with tags, fused parts or gaps limits assumed): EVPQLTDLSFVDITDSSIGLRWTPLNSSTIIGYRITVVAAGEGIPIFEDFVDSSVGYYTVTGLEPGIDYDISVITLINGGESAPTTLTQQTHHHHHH
Sequence of ED-B domain of human fibronectin, recombinant, with C-terminal six-histidine tag (human) (P02751 other isoform, or with tags, fused parts or gaps limits assumed): as above

L19-Fc (Fc fusion): in experiment [1], the equilibrium dissociation constant (Kd) stood at 6 nM.

B1: A11 antibody (Fc fusion)
chain: EVQLLESGGGLVQPGGSLRLSCAASGFTFSSYAMSWVRQAPGKGLEWVSRISPSGSSTYYADSVKGRFTISRDNSKNTLYLQMNSLRAEDTAVYYCARRMSYFDYWGQGTLVTVSSGGGGSGGGGSGGGGSSQSALTQPASVSGSPGQSITISCSGDSLGIGSNNYVSWYQQHPGKAPKLMIYDDNKRPSGVSNRFSGSKSGNTASLTISGLQAEDEADYYCQSWDGRQPVFGGGTKLTVLG
notes: Assayed as purified Fc-containing antibody from mammalian cells
On to B1, for which the “affinity relative to L19” value in experiment [2] was approximately 3 fold.

As a reminder, the Kd is the free concentration of one partner at which half of the binding sites on the other are occupied at equilibrium, for simple one-to-one binding.
